From the supplement of paper PMC11246515
± gives the standard deviation of the averaged measurements.

Assay: total protein half-life in vivo (active degradation + dilution); higher = more stable protein
[1] = E. coli NCM3722 delta-clpP delta-lon delta-hslV, growth: N-lim chemostat, doubling time 6 h
[2] = E. coli NCM3722 delta-clpP, growth: N-lim chemostat, doubling time 6 h
[3] = E. coli NCM3722 delta-hslV, growth: N-lim chemostat, doubling time 6 h
[4] = E. coli NCM3722 delta-lon, growth: N-lim chemostat, doubling time 6 h
[5] = E. coli NCM3722 delta-smpB, growth: N-lim chemostat, doubling time 6 h
[6] = wild type E. coli NCM3722, growth: C-lim chemostat, doubling time 3 h
[7] = wild type E. coli NCM3722, growth: C-lim chemostat, doubling time 6 h
[8] = wild type E. coli NCM3722, growth: C-lim chemostat, doubling time 12 h
[9] = wild type E. coli NCM3722, growth: N-lim chemostat, doubling time 6 h
[10] = wild type E. coli NCM3722, growth: N-lim chemostat, doubling time 12 h
[11] = wild type E. coli NCM3722, growth: P-lim chemostat, doubling time 6 h
[12] = wild type E. coli NCM3722, growth: P-lim chemostat, doubling time 12 h

With “MSDSQTLVVKLGTSVLTGGSRRLNRAHIVELVRQCAQLHAAGHRIVIVTSGAIAAGREHLGYPELPATIASKQLLAAVGQSRLIQLWEQLFSIYGIHVGQMLLTRADMEDRERFLNARDTLRALLDNNIVPVINENDAVATAEIKVGDNDNLSALAAILAGADKLLLLTDQKGLYTADPRSNPQAELIKDVYGIDDALRAIAGDSVSGLGTGGMSTKLQAADVACRAGIDTIIAAGSKPGVIGDVMEGISVGTLFHAQATPLENRKRWIFGAPPAGEITVDEGATAAILERGSSLLPKGIKSVTGNFSRGEVIRICNLEGRDIAHGVSRYNSDALRRIAGHHSQEIDAILGYEYGPVAVHRDDMITR [P0A7B5]” the “total protein half-life in vivo” value [1] was 3.94 ± 0.49 h, the “total protein half-life in vivo” value [2] was 3.94 ± 0.43 h and the “total protein half-life in vivo” value [3] was 4.25 ± 0.076 h. The “total protein half-life in vivo” value [4] was 5.654 ± 0.012 h, the “total protein half-life in vivo” value [5] was 3.57 ± 0.05 h and the “total protein half-life in vivo” value [6] was 2.98 ± 0.13 h. For the same sequence, the “total protein half-life in vivo” value [7] was 5.35 ± 0.17 h, the “total protein half-life in vivo” value [8] was 9.09 ± 0.098 h and the “total protein half-life in vivo” value [9] was 4.4 ± 0.31 h. For the same sequence, the “total protein half-life in vivo” value [10] was 9.48 ± 1.3 h, the “total protein half-life in vivo” value [11] was 5.69 ± 0.71 h and the “total protein half-life in vivo” value [12] was 11.7 ± 0.25 h.
In the case of “MRKIKIGLALGSGAARGWSHIGVINALKKVGIEIDIVAGCSIGSLVGAAYACDRLSALEDWVTSFSYWDVLRLMDLSWQRGGLLRGERVFNQYREIMPETEIENCSRRFAAVATNLSTGRELWFTEGDLHLAIRASCSIPGLMAPVAHNGYWLVDGAVVNPIPISLTRALGADIVIAVDLQHDAHLMQQDLLSFNVSEENSENGDSLPWHARLKERLGSITTRRAVTAPTATEIMTTSIQVLENRLKRNRMAGDPPDILIQPVCPQISTLDFHRAHAAIAAGQLAVERKMDELLPLVRTNI [P0AFR0]”, the “total protein half-life in vivo” value [1] is reported as 5 ± 0.29 h, the “total protein half-life in vivo” value [2] is reported as 4.67 ± 0.2 h and the “total protein half-life in vivo” value [3] is reported as 4.923 ± 0.045 h. The “total protein half-life in vivo” value [4] was 5.26 h, the “total protein half-life in vivo” value [5] was 4.51 ± 0.14 h and the “total protein half-life in vivo” value [6] was 2.951 ± 0.017 h. The “total protein half-life in vivo” value [7] was 5.25 ± 0.36 h, the “total protein half-life in vivo” value [8] was 10.6 ± 1.2 h and the “total protein half-life in vivo” value [9] was 5.61 ± 0.09 h. The “total protein half-life in vivo” value [10] was 8.89 ± 1.5 h, the “total protein half-life in vivo” value [11] was 5.659 ± 0.02 h and the “total protein half-life in vivo” value [12] was 11.7 ± 0.5 h.
With “MSASLAILTIGIVPMQEVLPLLTEYIDEDNISHHSLLGKLSREEVMAEYAPEAGEDTILTLLNDNQLAHVSRRKVERDLQGVVEVLDNQGYDVILLMSTANISSMTARNTIFLEPSRILPPLVSSIVEDHQVGVIVPVEEMLPVQAQKWQILQKSPVFSLGNPIHDSEQKIIDAGKELLAKGADVIMLDCLGFHQRHRDLLQKQLDVPVLLSNVLIARLAAELLV [P0AE28]” the “total protein half-life in vivo” value [1] was 3.97 h, the “total protein half-life in vivo” value [2] was 2.28 h and the “total protein half-life in vivo” value [5] was 1.41 h. For the same sequence, the “total protein half-life in vivo” value [6] was 2.32 ± 0.053 h, the “total protein half-life in vivo” value [7] was 3.15 ± 0.55 h and the “total protein half-life in vivo” value [8] was 3.7 h. The “total protein half-life in vivo” value [9] was 1.67 ± 0.018 h and the “total protein half-life in vivo” value [12] was 7.89 h.
For “MILSAFSLEGKVAVVTGCDTGLGQGMALGLAQAGCDIVGINIVEPTETIEQVTALGRRFLSLTADLRKIDGIPALLDRAVAEFGHIDILVNNAGLIRREDALEFSEKDWDDVMNLNIKSVFFMSQAAAKHFIAQGNGGKIINIASMLSFQGGIRVPSYTASKSGVMGVTRLMANEWAKHNINVNAIAPGYMATNNTQQLRADEQRSAEILDRIPAGRWGLPSDLMGPIVFLASSASDYVNGYTIAVDGGWLAR”, the “total protein half-life in vivo” value [1] was 3.57 ± 0.82 h, the “total protein half-life in vivo” value [2] was 2.06 ± 0.13 h and the “total protein half-life in vivo” value [3] was 2.8 ± 0.69 h. The “total protein half-life in vivo” value [4] was 2.48 ± 0.36 h, the “total protein half-life in vivo” value [5] was 2.31 ± 0.11 h and the “total protein half-life in vivo” value [6] was 2.75 ± 0.077 h. For the same sequence, the “total protein half-life in vivo” value [7] was 4.15 ± 0.16 h, the “total protein half-life in vivo” value [8] was 7.26 ± 0.34 h and the “total protein half-life in vivo” value [9] was 2.385 ± 0.018 h. For the same sequence, the “total protein half-life in vivo” value [10] was 3.87 ± 0.81 h, the “total protein half-life in vivo” value [11] was 5.03 ± 0.081 h and the “total protein half-life in vivo” value [12] was 10.5 ± 0.36 h.
With “MPTKMRTTRNLLLMATLLGSALFARAAEKEMTIGAIYLDTQGYYAGVRQGVQDAAKDSSVQVQLIETNAQGDISKESTFVDTLVARNVDAIILSAVSENGSSRTVRRASEAGIPVICYNTCINQKGVDKYVSAYLVGDPLEFGKKLGNAAADYFIANKIDQPKIAVINCEAFEVCVQRRKGFEEVLKSRVPGAQIVANQEGTVLDKAISVGEKLIISTPDLNAIMGESGGATLGAVKAVRNQNQAGKIAVFGSDMTTEIAQELENNQVLKAVVDISGKKMGNAVFAQTLKVINKQADGEKVIQVPIDLYTKTEDGKQWLATHVDGLP” the “total protein half-life in vivo” value [4] was over 8 h, the “total protein half-life in vivo” value [5] was 5.48 ± 2.3 h and the “total protein half-life in vivo” value [6] was 3.51 ± 0.069 h. The “total protein half-life in vivo” value [7] was 6.18 ± 0.59 h, the “total protein half-life in vivo” value [8] was 10.2 ± 0.31 h and the “total protein half-life in vivo” value [11] was over 8 h. For the same sequence, the “total protein half-life in vivo” value [12] was 13.19 ± 0.1 h.
For “MGNNLMQTDLSVWGMYQHADIVVKCVMIGLILASVVTWAIFFSKSVEFFNQKRRLKREQQLLAEARSLNQANDIAADFGSKSLSLHLLNEAQNELELSEGSDDNEGIKERTSFRLERRVAAVGRQMGRGNGYLATIGAISPFVGLFGTVWGIMNSFIGIAQTQTTNLAVVAPGIAEALLATAIGLVAAIPAVVIYNVFARQIGGFKAMLGDVAAQVLLLQSRDLDLEASAAAHPVRVAQKLRAG [P0ABU7]”, the “total protein half-life in vivo” value [1] was 6.15 ± 0.21 h, the “total protein half-life in vivo” value [2] was 6.38 ± 2.2 h and the “total protein half-life in vivo” value [5] was 1.58 ± 1 h. The “total protein half-life in vivo” value [6] was 1.68 ± 0.17 h, the “total protein half-life in vivo” value [7] was 1.99 h and the “total protein half-life in vivo” value [8] was 3.22 h. For the same sequence, the “total protein half-life in vivo” value [11] was 1.38 h and the “total protein half-life in vivo” value [12] was 3.56 h.
With “MSLPFLRTLQGDRFFQLLILVGIGLSFFVPFAPKSWPAAIDWHTIITLSGLMLLTKGVELSGYFDVLGRKMVRRFATERRLAMFMVLAAALLSTFLTNDVALFIVVPLTITLKRLCEIPVNRLIIFEALAVNAGSLLTPIGNPQNILIWGRSGLSFAGFIAQMAPLAGAMMLTLLLLCWCCFPGKAMQYHTGVQTPEWKPRLVWSCLGLYIVFLTALEFKQELWGLVIVAAGFALLARRVVLSVDWTLLLVFMAMFIDVHLLTQLPALQGVLGNVSHLSEPGLWLTAIGLSQVISNVPSTILLLNYVPPSLLLVWAVNVGGFGLLPGSLANLIALRMANDRRIWWRFHLYSIPMLLWAALVGYVLLVILPAN” the “total protein half-life in vivo” value [10] was 9.39 h.
